Data from article PMC11253607, “A conserved inhibitory interdomain interaction regulates DNA-binding activities of hybrid two-component systems in Bacteroides” (mBio, 2024).

Tests used:
Test in all cases: Phos-tag gel autophosphorylation, initial rates, Michaelis-Menten fit
Format in all cases: biochemical, Bacteroides thetaiotaomicron
Details in all cases: phospho-donor, 50 mM Tris pH 7.5, 100 mM NaCl, 5 mM BME, 5 mM MgSO4, 5 µM protein
NP(=O)(O)O [1] = test system: NP(=O)(O)O
Text: Phos-tag gel autophosphorylation, initial rates, Michaelis-Menten fit on BT3334-REC | RECs have higher kcat and lower Km values than RRs

NP(=O)(O)O [2] = test system: NP(=O)(O)O; remark: listed apart in the source
Text: Phos-tag gel autophosphorylation, initial rates, Michaelis-Menten fit on BT4663-RR | RECs have higher kcat and lower Km values than RRs

NP(=O)(O)O [3] = test system: NP(=O)(O)O; remark: listed apart in the source
NP(=O)(O)O [4] = test system: NP(=O)(O)O; remark: listed apart in the source
Text: Phos-tag gel autophosphorylation, initial rates, Michaelis-Menten fit on BT4124-RR | RECs have higher kcat and lower Km values than RRs

NP(=O)(O)O [5] = test system: NP(=O)(O)O; remark: listed apart in the source
Text: Phos-tag gel autophosphorylation, initial rates, Michaelis-Menten fit on BT3334-RR | RECs have higher kcat and lower Km values than RRs

NP(=O)(O)O [6] = test system: NP(=O)(O)O; remark: listed apart in the source
Text: Phos-tag gel autophosphorylation, initial rates, Michaelis-Menten fit on BT4663-REC | RECs have higher kcat and lower Km values than RRs

NP(=O)(O)O [7] = test system: NP(=O)(O)O; remark: listed apart in the source
Text: Phos-tag gel autophosphorylation, initial rates, Michaelis-Menten fit on BT4124-REC | RECs have higher kcat and lower Km values than RRs

Substance “BT3334-REC (Bacteroides thetaiotaomicron VPI-5482)” has a Km (NP(=O)(O)O [1]) of 4.5 ± 0.8 mM and a kcat (NP(=O)(O)O [1]) of 0.02 ± 0.0017 s⁻¹.

“BT4663-RR (Bacteroides thetaiotaomicron VPI-5482)” showed a Km (NP(=O)(O)O [2]) of 33 ± 6 mM and a kcat (NP(=O)(O)O [2]) of 0.0035 ± 0.00033 s⁻¹.

In the case of “BT4124-RR (Bacteroides thetaiotaomicron VPI-5482; C1262A/H1263D)”, the Km (NP(=O)(O)O [3]) is reported as 8.5 ± 1.5 mM and the kcat (NP(=O)(O)O [3]) is reported as 0.02 ± 0.0017 s⁻¹.

Work on “BT4124-REC (Bacteroides thetaiotaomicron VPI-5482; C1262A/H1263D)” yielded a Km (NP(=O)(O)O [3]) of 13 ± 2 mM and a kcat (NP(=O)(O)O [3]) of 0.0267 ± 0.0017 s⁻¹.

With “BT4124-RR (Bacteroides thetaiotaomicron VPI-5482)” the Km (NP(=O)(O)O [4]) was 17 ± 2 mM and the kcat (NP(=O)(O)O [4]) was 0.00833 ± 0.0005 s⁻¹.

With “BT3334-RR (Bacteroides thetaiotaomicron VPI-5482)” the Km (NP(=O)(O)O [5]) was 7.8 ± 2.4 mM and the kcat (NP(=O)(O)O [5]) was 0.0095 ± 0.00083 s⁻¹.

Work on “BT4663-REC (Bacteroides thetaiotaomicron VPI-5482)” yielded a Km (NP(=O)(O)O [6]) of 14 ± 4 mM and a kcat (NP(=O)(O)O [6]) of 0.0135 ± 0.0017 s⁻¹.

Work on “BT4124-REC (Bacteroides thetaiotaomicron VPI-5482)” yielded a Km (NP(=O)(O)O [7]) of 10 ± 1 mM and a kcat (NP(=O)(O)O [7]) of 0.0233 ± 0.0017 s⁻¹.

“BT4124-RR (Bacteroides thetaiotaomicron VPI-5482; C1262A/H1263G)” showed a Km (NP(=O)(O)O [3]) of 13 ± 3 mM and a kcat (NP(=O)(O)O [3]) of 0.0183 ± 0.0017 s⁻¹.
